Molecular target: T1, telomerase (hTERT) peptide on HLA-A*02:01 (human)
T1 peptide: RLVDDFLLV
Experiment: multimer staining

binding result: recognises
B1: TCR specific for the HLA-A2/hTERT865-873 complex (α5 and β3 chains, SEQ. ID. no. 1 and 2) (TCR, V domains shown)
Valpha: GEQVEQRPPHLSVREGDSAVIICTYTDPNSYYFFWYKQEPGAGLQLLMKVFSSTEINEGQGFTVLLNKKDKQLSLNLTAAHPGDSAVYFCAVRHDSGYNKLTFGKGTVLLVSP
Vbeta: NSKVIQTPRYLVKGQGQKAKMRCIPEKGHPVVFWYQQNKNNEFKFLINFQNQEVLQQIDMTEKRFSAECPSNSPCSLEIQSSEAGDSALYLCASSLSKGGFYEQYFGPGTRLTVL
